Reference: US20110070156A1 (published 2011)

Columns and labels:
[1] = biological target: Trop-2 (EGP-1, epithelial glycoprotein-1) (human) (UniProt P09758)
[2] = biological target: Trop-2 (EGP-1, epithelial glycoprotein-1) (human) (UniProt P09758); experiment: cell-based or functional assay
[3] = biological target: Trop-2 (EGP-1, epithelial glycoprotein-1) (human) (UniProt P09758); experiment: ELISA on Trop-2-expressing cell lines PC-3 and Calu-3
[4] = biological target: T1, Trop-2 (EGP-1, epithelial glycoprotein-1) (human, UniProt P09758 27-323); experiment: ELISA on Trop-2-expressing cell lines PC-3 and Calu-3; apparent dissociation constant
T1 construct: whole, on cells
T1 sequence (looked up): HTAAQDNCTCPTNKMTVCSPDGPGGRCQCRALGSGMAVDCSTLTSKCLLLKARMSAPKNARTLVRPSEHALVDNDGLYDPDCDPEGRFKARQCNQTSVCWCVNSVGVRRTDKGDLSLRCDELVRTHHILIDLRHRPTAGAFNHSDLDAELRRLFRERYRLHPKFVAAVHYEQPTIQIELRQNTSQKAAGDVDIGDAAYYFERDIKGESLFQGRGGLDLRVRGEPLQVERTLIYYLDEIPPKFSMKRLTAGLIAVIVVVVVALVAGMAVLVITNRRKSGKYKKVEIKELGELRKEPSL

## 2L-Rap(Q)-hRS7
[1]
  Kd: 0.28 nM
[2]
  EC50, MTS cell proliferation assay, Calu-3 cells: 8.5 nM
  EC50, MTS cell proliferation assay, MDA-MB-468 cells: 3.8 nM
  EC50, MTS cell proliferation assay, ME-180 cells: 1.5 nM
  EC50, MTS cell proliferation assay, T-47D cells: 2 nM
[3]
  fold of apparent KD against hRS7: 2 fold

B1: hRS7 IgG (humanized RS7, anti-Trop-2 / anti-EGP-1) (antibody, V domains shown)
VH: QVQLQQSGSELKKPGASVKVSCKASGYTFTNYGMNWVKQAPGQGLKWMGWINTYTGEPTYTDDFKGRFAFSLDTSVSTAYLQISSLKADDTAVYFCARGGFGSSYWYFDVWGQGSLVTVSS
VL: DIQLTQSPSSLSASVGDRVSITCKASQDVSIAVAWYQQKPGKAPKLLIYSASYRYTGVPDRFSGSGSGTDFTLTISSLQPEDFAVYYCQQHYITPLTFGAGTKVEIKR
[4]
  Kd: 0.14 nM
